From patent US20200400655A1, “RATIOMETRIC BRET MEASUREMENTS OF ATP WITH A GENETICALLY-ENCODED LUMINESCENT SENSOR” (Purdue Research Foundation, priority 2019, published 2020)

Tests used:
[1] = ATP dose-response of purified mScarlet-ε-NanoLuc, luminescence BRET ratio on microplate reader; type: binding; settings: purified protein; for BRET ratio: n=3
Excerpt: (§1) Protein Engineering and Library Screen. Sensors were constructed by Gibson Assembly using the NEB HiFi kit, sub-cloned into the pRSETB vector for expression as His-tagged protein in BL21(DE3) E. coli, and purified by nickel-affinity chromatography. CeNL/pcDNA3 was a gift from Takeharu Nagai (Addgene plasmid #85199), pcDNA3-mNeonGreen was a gift from Richard Day (Indiana University), pCytERm-mScarlet_N1 was a gift from Dorus Gadella (Addgene plasmid #85066), and pBad-HisB-RRvT (Addgene plasmid #87364) and pBad-HisB-GRvT (Addgene plasmid #87363) were gifts from Robert Campbell. The fluorescence and luminescence ATP dose-response curves for purified protein solutions were measured on a BioTek Synergy H4 multi-mode microplate reader at ambient temperature. Luminescence was also measured using a Spectral Instruments Ami HT. Plasmids generated in this study are distributed via Addgene.
The fluorescence and luminescence of purified sensor proteins were investigated in assay buffer (50 mM MOPS-KOH, 50 mM KCl, 0.5 mM MgCl2, and 0.05% Triton X-100, pH 7.3) in a 96-well plate using a BioTek Synergy H4 multi-mode microplate reader at ambient temperature. For FRET library screening, 420/50 and 485/20 nm excitation filters and 485/20, 528/20, and 620/15 nm emission filters were used. For BRET screening, 20 μM coelenterazine-h was used as a substrate of NanoLuc and 450/50, 485/20, 528/20, and 620/15 nm emission filters were used. For characterization of mScarlet-ε-NanoLuc, 20 μM coelenterazine-h was applied to a reaction solution containing the purified sensor protein and 0-10 mM ATP in assay buffer. Luminescence spectra were scanned from 400 to 650 nm. Emissions of NanoLuc and mScarlet were measured using 450/50 and 620/15 nm emission filters, respectively, and the BRET efficiency was obtained by calculating the emission ratio of mScarlet/NanoLuc. Luminescence was also measured using a Spectral Instruments Ami HT with 510/20 and 650/20 nm emission filters (binning 2×2, FOV 25 cm, f-stop 1.2). Purified mScarlet-ε-NanoLuc protein in assay buffer with 0-10 mM ATP was imaged with a 1 sec exposure time after the addition of 20 μM coelenterazine-h. For measurements at different concentrations (1-100 nM) of mScarlet-ε-NanoLuc protein, the purified protein was mixed with 10 mM ATP or 0 mM ATP and imaged after the addition of 20 μM coelenterazine-h with a 5 sec exposure time for a total 30 min. Regions of interest were drawn over each well for all filter sets, and the average radiance was determined.

[2] = Library screen: FRET and BRET dynamic range of purified sensors after addition of saturating ATP; type: binding
Excerpt: as §1, with “Plasmids generated in this study are distributed via Addgene.” left out
(§2) The fluorescence and luminescence of purified sensor proteins were investigated in assay buffer (50 mM MOPS-KOH, 50 mM KCl, 0.5 mM MgCl2, and 0.05% Triton X-100, pH 7.3) in a 96-well plate using a BioTek Synergy H4 multi-mode microplate reader at ambient temperature. […] Luminescence spectra were scanned from 400 to 650 nm. Emissions of NanoLuc and mScarlet were measured using 450/50 and 620/15 nm emission filters, respectively, and the BRET efficiency was obtained by calculating the emission ratio of mScarlet/NanoLuc. […]

[3] = Ratiometric BRET imaging of purified mScarlet-ε-NanoLuc protein on SI Ami HT whole-animal imaging system; type: binding; settings: protein solutions
Excerpt: as §1, with “Plasmids generated in this study are distributed via Addgene.” left out
as §2

HEK293A cells [4] = assay: Live single-cell BRET microscopy with metabolic inhibition; type: cell-based; settings: metabolic inhibition with 10 mM 2DG and 2.5 μM oligomycin A, ambient temperature
Experimental: Live single-cell microscopy. The sensor genes were sub-cloned into the GW1 mammalian expression vector, and HEK293A cells were transfected by the calcium phosphate method. Cells were imaged with 30 second exposure times and 2 minute imaging interval on an Olympus IX83 microscope with a 40× 1.35 NA Apo oil objective, an Andor Xyla 4.2 sCMOS camera at 2-by-2 pixel binning, and 470/24 nm and 632/60 nm emission filters. Just prior to the addition of furimazine, well volume was exchanged twice with imaging media without glucose. After adding furimazine, a three point baseline was acquired. […] Cells were imaged for ˜30 minutes until luminescence decayed to background. Image backgrounds were subtracted before calculating the ratio images of the luminescence channels using ImageJ. […]
After removing the plate from the incubator, cell growth media was exchanged for imaging media (15 mM HEPES, 120 mM NaCl, 3 mM KCl, 3 mM NaHCO3, 1.25 mM NaH2PO4, 10 mM glucose, 2 mM CaCl2, 1 mM MgCl2). Imaging regions were determined using mScarlet fluorescence and DIC. […] Cells were imaged until luminescence decayed to background (20-30 minutes). Image backgrounds were subtracted (rolling ball radus 100 pixels) before calculating the ratio images of the luminescence channels using ImageJ. […] For FIG. 3, binary masks were generated using channel luminescence to remove pixels in ratio image corresponding to background. […]

HEK293A cells [5] = assay: Bioluminescence imaging of adherent sensor-expressing cells in Spectral Ami, glucose vs metabolic inhibitors; type: cell-based; settings: for mScarlet-ε-NanoLuc ratio signal: n=6
Experimental: HEK293A cells were transfected with plasmids carrying mScarlet-ε-NanoLuc by calcium phosphate method. One day after transfection, cells were passaged onto a 96-well plate at different cell densities from 1,250 to 20,000 cells per well. After an additional 24-48 hours, imaging was performed using a spectral Ami with 510/20 nm and 650/20 nm filters (5 sec exposure time, binning 2×2, FOV 25 cm, f-stop 1.2) immediately after the addition of 20 μM coelenterazine-h.
We first validated that we could measure differences in energy metabolism using adherent cell cultures. HEK293A cells expressing mScarlet-ε-NanoLuc were seeded at different densities, from 62,500 cells/cm^2 down to 4,000 cell/cm^2 to determine the sensitivity of detection in the Spectral Ami system. […] Thus, the sensor effectively detects metabolic differences in live cells in a dish within the animal imager.

[6] = Whole-animal imaging of purified sensor protein placed subcutaneously in mice; type: in vivo, Balb/c mice; settings: 10 mM vs 0 mM ATP, subcutaneous hindlimb, unshaved mice, n=3
Experimental: (§3) Animal Imaging System. All animal procedures were performed in strict accordance with recommendations provided in the National Institutes of Health (NIH) Guide for the Care and Use of Laboratory Animals, according to protocols approved by the Purdue Animal Care and Use Committee and the Purdue University Laboratory Animal Program to minimize pain and suffering. Male and female adult Balb/c and FVB mice were sacrificed and then injected with protein solution or live cells subcutaneously in the hind limb area. NanoLuc substrate, either 20 μM coelenterazine-h or 0.5× Promega Nano-Glo furimazine solution, was mixed with the sample just prior to injection. Protein, cells, and animals were imaged at ambient temperature. […] Therefore, in this study we used the SI Ami HT equipped with a 510/20 nm and 650/20 nm emission filters for all subsequent experiments.
For imaging of purified protein in mice, mScarlet-ε-NanoLuc protein pre-equilibrated with 0 mM or 10 mM ATP was mixed with 20 μM coelenterazine-h. The reaction mixture was enclosed in a custom plastic tube and placed subcutaneously in the left (0 mM ATP) and right (10 mM ATP) hindlimb areas of adult Balb/c mice carcass. The sequential imaging was immediately performed using a spectral Ami with 510/20 and 650/20 nm filters (30 sec exposure time, binning 2×2, FOV 25, f-stop 1.2). […]

HEK293A cells [7] = assay: Whole-animal imaging of sensor-expressing live cell suspensions injected subcutaneously in mice; type: in vivo; settings: 10^6 live cells subcutaneous, unshaved adult FVB mice, n=6
Experimental: as §3
For imaging of purified protein in mice, mScarlet-ε-NanoLuc protein pre-equilibrated with 0 mM or 10 mM ATP was mixed with 20 μM coelenterazine-h. […]
We next carried out ratiometric imaging of live cells injected in whole animals. […] The total luminescence intensity provides an indicator of the total protein expression level, and critically we observed that the BRET ratio was dependent on the metabolic condition only and was independent of the level of luminescence intensity (FIG. 5).

B1: mScarlet-ε-NanoLuc: BRET-only ATP sensor: mScarlet (N-terminus), B. subtilis ε subunit, NanoLuc (C-terminus); SEQ ID NO:1 (protein)
chain: MVSKGEAVIKEFMRFKVHMEGSMNGHEFEIEGEGEGRPYEGTQTAKLKVTKGGPLPFSWDILSPQFMYGSRAFTKHPADIPDYYKQSFPEGFKWERVMNFEDGGAVTVTQDTSLEDGTLIYKVKLRGTNFPPDGPVMQKKTMGWEASTERLYPEDGVLKGDIKMALRLKDGGRYLADFKTTYKAKKPVQMPGAYNVDRKLDITSHNEDYTVVEQYERSEGRHSTGRHIDMKTVKVNITTPDGPVYDADIEMVSVRAESGDLGILPGHIPTKAPLKIGAVRLKKDGQTEMVAVSGGTVEVRPDHVTINAQAAETAEGIDKERAEAARQRAQERLNSQSDDTDIRRAELALQRALNRLDVAGKANEFMLEDFVGDWRQTAGYNLDQVLEQGGVSSLFQNLGVSVTPIQRIVLSGENGLKIDIHVIIPYEGLSGDQMGQIEKIFKVVYPVDDHHFKVILHYGTLVIDGVTPNMIDYFGRPYEGIAVFDGKKITVTGTLWNGNKIIDERLINPDGSLLFRVTINGVTGWRLCERILA
modifications: mScarlet-e-NanoLuc
For B1, the BRET ratio ([1]; 0 mM ATP) was 0.0063±0.0001, the BRET ratio ([1]; 10 mM ATP) was 0.0324±0.009 and the “BRET ratio stability over time during luminescence intensity decay” value [1] was “stable over time”. The “maximal change in BRET ratio upon ATP saturation” value [1] was “greater than 4 fold”, the “Fold-Change in Ratio BRET” value ([2]; after addition of saturating ATP, purified protein, 20 μM coelenterazine-h) was 5.12 ± 0.18 and the “change in the BRET ratio upon saturation with ATP” value ([2]; purified sensor, zero to saturating ATP) was 5 fold. For the same molecule, the “dynamic range in ATP dose response” value [3] was 5 fold, the “change in the absolute BRET ratio” value (HEK293A cells [4]) was −71% and the “difference in ratio signal, glucose vs metabolic inhibitors” value (HEK293A cells [5]) was roughly 3 fold. For the same molecule, the mScarlet-ε-NanoLuc ratio signal (HEK293A cells [5]; addition of glucose) was 0.29±0.04, the mScarlet-ε-NanoLuc ratio signal (HEK293A cells [5]; metabolic inhibitors 2DG and oligomycin A) was 0.11±0.01 and the “difference in the ratio with vs without ATP imaged through tissue and fur” value [6] was “greater than 3 fold”. The “ratio difference between glucose and inhibitor-treated cells through tissue and fur, compared with cell suspensions in a dish” value (HEK293A cells [7]) was “same ratio difference”.
